± gives the standard deviation of the averaged measurements.
Assay: total protein half-life in vivo (active degradation + dilution); higher = more stable protein
[1] = E. coli NCM3722 delta-clpP delta-lon delta-hslV, growth: N-lim chemostat, doubling time 6 h
[2] = E. coli NCM3722 delta-clpP, growth: N-lim chemostat, doubling time 6 h
[3] = E. coli NCM3722 delta-hslV, growth: N-lim chemostat, doubling time 6 h
[4] = E. coli NCM3722 delta-lon, growth: N-lim chemostat, doubling time 6 h
[5] = E. coli NCM3722 delta-smpB, growth: N-lim chemostat, doubling time 6 h
[6] = wild type E. coli NCM3722, growth: C-lim chemostat, doubling time 12 h
[7] = wild type E. coli NCM3722, growth: N-lim chemostat, doubling time 6 h
[8] = wild type E. coli NCM3722, growth: N-lim chemostat, doubling time 12 h
[9] = wild type E. coli NCM3722, growth: P-lim chemostat, doubling time 6 h
[10] = wild type E. coli NCM3722, growth: P-lim chemostat, doubling time 12 h
[11] = wild type E. coli NCM3722, growth: C-lim chemostat, doubling time 6 h
[12] = wild type E. coli NCM3722, growth: C-lim chemostat, doubling time 3 h

| Sequence | total protein half-life in vivo [1] | total protein half-life in vivo [2] | total protein half-life in vivo [3] | total protein half-life in vivo [4] | total protein half-life in vivo [5] | total protein half-life in vivo [6] | total protein half-life in vivo [7] | total protein half-life in vivo [8] | total protein half-life in vivo [9] | total protein half-life in vivo [10] | total protein half-life in vivo [11] | total protein half-life in vivo [12] |
| --- | --- | --- | --- | --- | --- | --- | --- | --- | --- | --- | --- | --- |
| MNKDEAGGNWKQFKGKVKEQWGKLTDDDMTIIEGKRDQLVGKIQERYGYQKDQAEKEVVDWETRNEYRW | 6.99 ± 1.3 h | 4.33 ± 0.086 h | 4.42 h | 6.177 ± 0.038 h | 3.64 ± 0.25 h | 11 ± 3.5 h | 3.59 ± 0.14 h | 6.53 ± 1.5 h | 3.72 ± 0.58 h | 6.92 ± 0.27 h | – | – |
| MKAPGLPADQQFFADLFSGLVLNPQLLGRVWFASQPASLPVGSLCIDFPRLDIVLRGEYGNLLEAKQQRLVEGEMLFIPARAANLPVNNKPVMLLSLVFAPTWLGLSFYDSRTTSLLHPARQIQLPSLQRGEGEAMLTALTHLSRSPLEQNIIQPLVLSLLHLCRSVVNMPPGNSQPRGDFLYHSICNWVQDNYAQPLTRESVAQFFNITPNHLSKLFAQHGTMRFIEYVRWVRMAKARMILQKYHLSIHEVAQRCGFPDSDYFCRVFRRQFGLTPGEYSARFQG | 5.03 h | – | – | – | – | – | – | – | – | – | 1.83 h | – |
| MTTNTHTLQIEEILELLPHRFPFLLVDRVLDFEEGRFLRAVKNVSVNEPFFQGHFPGKPIFPGVLILEAMAQATGILAFKSVGKLEPGELYYFAGIDEARFKRPVVPGDQMIMEVTFEKTRRGLTRFKGVALVDGKVVCEATMMCARSREA [P0A6Q6] | 5.67 ± 0.36 h | – | – | 5.38 ± 0.24 h | 5.504 ± 0.036 h | 11.2 ± 0.12 h | 6.23 ± 0.6 h | 11.9 ± 0.43 h | 5.75 ± 0.8 h | 13.4 ± 0.14 h | 6.1 ± 0.81 h | 2.86 ± 0.45 h |
| MYFLNDLNFSRRDAGFKARKDALDIASDYENISVVNIPLWGGVVQRIISSVKLSTFLCGLENKDVLIFNFPMAKPFWHILSFFHRLLKFRIVPLIHDIDELRGGGGSDSVRLATCDMVISHNPQMTKYLSKYMSQDKIKDIKIFDYLVSSDVEHRDVTDKQRGVIYAGNLSRHKCSFIYTEGCDFTLFGVNYENKDNPKYLGSFDAQSPEKINLPGMQFGLIWDGDSVETCSGAFGDYLKFNNPHKTSLYLSMELPVFIWDKAALADFIVDNRIGYAVGSIKEMQEIVDSMTIETYKQISENTKIISQKIRTGSYFRDVLEEVIDDLKTR | 6.47 h | 7.29 h | – | 5.02 ± 0.14 h | 4.15 ± 0.31 h | – | – | – | – | – | – | – |
| MLDKLDAALRFQQEALNLRAQRQEVLAANIANADTPGYQARDIDFASELKKVMQRGRDATSVVALTMTSTQHIPAQALTPPTAELQYRIPDQPSLDGNTVDMDRERTQFADNSLQYQMSLSALSGQIKGMMNVLQSGN [P0ABW9] | – | – | – | – | – | – | – | – | – | – | – | 1.32 h |
| MPFTLGQRWISDTESELGLGTVVAVDARTVTLLFPSTGENRLYARSDSPVTRVMFNPGDTITSHDGWQMQVEEVKEENGLLTYIGTRLDTEESGVALREVFLDSKLVFSKPQDRLFAGQIDRMDRFALRYRARKYSSEQFRMPYSGLRGQRTSLIPHQLNIAHDVGRRHAPRVLLADEVGLGKTIEAGMILHQQLLSGAAERVLIIVPETLQHQWLVEMLRRFNLRFALFDDERYAEAQHDAYNPFDTEQLVICSLDFARRSKQRLEHLCEAEWDLLVVDEAHHLVWSEDAPSREYQAIEQLAEHVPGVLLLTATPEQLGMESHFARLRLLDPNRFHDFAQFVEEQKNYRPVADAVAMLLAGNKLSNDELNMLGEMIGEQDIEPLLQAANSDSEDAQSARQELVSMLMDRHGTSRVLFRNTRNGVKGFPKRELHTIKLPLPTQYQTAIKVSGIMGARKSAEDRARDMLYPERIYQEFEGDNATWWNFDPRVEWLMGYLTSHRSQKVLVICAKAATALQLEQVLREREGIRAAVFHEGMSIIERDRAAAWFAEEDTGAQVLLCSEIGSEGRNFQFASHMVMFDLPFNPDLLEQRIGRLDRIGQAHDIQIHVPYLEKTAQSVLVRWYHEGLDAFEHTCPTGRTIYDSVYNDLINYLASPDQTEGFDDLIKNCREQHEALKAQLEQGRDRLLEIHSNGGEKAQALAESIEEQDDDTNLIAFAMNLFDIIGINQDDRGDNMIVLTPSDHMLVPDFPGLSEDGITITFDREVALAREDAQFITWEHPLIRNGLDLILSGDTGSSTISLLKNKALPVGTLLVELIYVVEAQAPKQLQLNRFLPPTPVRMLLDKNGNNLAAQVEFETFNRQLNAVNRHTGSKLVNAVQQDVHAILQLGEAQIEKSARALIDAARNEADEKLSAELSRLEALRAVNPNIRDDELTAIESNRQQVMESLDQAGWRLDALRLIVVTHQ | 5.68 ± 0.18 h | 5.48 ± 0.61 h | 5.139 ± 0.024 h | 5.36 ± 0.42 h | 5.21 ± 0.39 h | 12.5 ± 1.6 h | 5.09 ± 0.06 h | 9.51 ± 1.1 h | 6.156 ± 0.013 h | 12.1 ± 1.1 h | 6.26 ± 0.79 h | 3.11 ± 0.088 h |
